Source: paper PMC10233817
Read-outs that look alike come from different tables or passages of the source.

Key:
[1] = molecular target: T1, EWS RRM-RG2 (UniProt Q01844 361-517); assay: EMSA
T1 sequence: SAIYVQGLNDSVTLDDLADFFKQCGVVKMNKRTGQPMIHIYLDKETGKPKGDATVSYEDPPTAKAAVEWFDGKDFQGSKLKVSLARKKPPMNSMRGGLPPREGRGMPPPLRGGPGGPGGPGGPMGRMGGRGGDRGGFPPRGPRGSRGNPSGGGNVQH

[2] = molecular target: T2, EWS RRM-RG2-ZnF (UniProt Q01844 361-549); assay: EMSA
[3] = molecular target: T1, EWS RRM-RG2; assay: EMSA; remark: listed apart in the source
[4] = molecular target: T2, EWS RRM-RG2-ZnF; assay: EMSA; remark: listed apart in the source
[5] = molecular target: T1, EWS RRM-RG2; assay: ITC
[6] = molecular target: T3, EWS RRM (UniProt Q01844 361-447); assay: ITC
T3 sequence: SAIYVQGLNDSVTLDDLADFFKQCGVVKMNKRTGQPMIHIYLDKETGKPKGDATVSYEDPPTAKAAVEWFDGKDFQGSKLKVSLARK

[7] = molecular target: T2, EWS RRM-RG2-ZnF; assay: ITC
Target sequence in this assay (Q01844 361-549): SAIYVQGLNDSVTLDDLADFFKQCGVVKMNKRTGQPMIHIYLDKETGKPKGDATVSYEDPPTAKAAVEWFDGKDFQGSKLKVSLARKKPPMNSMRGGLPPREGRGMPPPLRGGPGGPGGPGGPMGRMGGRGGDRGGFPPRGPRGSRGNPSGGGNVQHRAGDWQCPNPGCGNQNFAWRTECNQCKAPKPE

GGAUCUUUAACUACUCAAGAUACUGAACAUGACAUGGUA (structured_RNA) [SON-GGU]
binding result [1]: binds
binding result [2]: binds

B1: RNA:DNA hybrid (DNA:RNA)
RNA: GCAGCUGGCACGACAGGUAUGAAUC
DNA: GATTCATACCTGTCGTGCCAGCTGC
binding result [3]: binds
binding result [4]: binds

TAAGGGAGGGCGGGAGGGAA (structured_DNA) [pu20m2 DNA G4]
Kd [5]: 3.28 ± 0.5 µM
Kd [6]: 22.3 ± 6.8 µM
Kd [7]: 3.96 ± 0.7 µM
